Key:
[1] = tested on: intracellular S. uberis GCC ST-5 in MAC-T and PS cells; assay: Intracellular killing assay in bovine mammary epithelial cell lines; format: cell-based, Streptococcus uberis; conditions: 2.5 μM, 1 h
Procedure: Cells were seeded in a 24-well plate at 50.000 cells/well with the addition of 25 μg/mL calf skin collagen type I (dissolved in 0.1 M acetic acid) (Sigma-Aldrich, USA) and grown to 100% confluency. Next, medium was removed and cells were washed 3× with dPBS to remove residual P/S. An overnight bacterial culture was washed with dPBS, dissolved in an equal volume of prewarmed cell culture media without the addition of P/S and 0.5 mL thereof was incubated with the cells in every well during 3 h at 37° C. to allow intracellular invasion. Afterwards, this suspension was removed, serially diluted and plated as previously described to determine the amount of extracellular bacteria. Cells were again washed 3× with dPBS and 0.5 mL of prewarmed cell culture media was added with the addition of 200 μg/ml gentamycin (Sigma-Aldrich, USA) and incubated during 3 h at 37° C. to kill remaining extracellular and adhered bacteria. Next, this suspension was likewise removed and plated to check if killing of the extracellular and adhered bacteria was successful. Cells were again 3× washed with dPBS and 2.5 µM of prewarmed NC5 in cell culture media without P/S (buffer exchange performed at 4-8° C. by means of a Pierce™ Protein Concentrator PES 10 kDa MWCO) was added during 1 h to eradicate the intracellular bacteria. […]

[2] = tested on: S. dysgalactiae; assay: Turbidity reduction assay (TRA), S. dysgalactiae; format: cell-based, Streptococcus dysgalactiae
Procedure: (§1) Concerning the time killing assay, an overnight bacterial culture was diluted 1:10 for S. uberis, S. agalactiae-& dysgalactiae or 1:100 for S. aureus in PBS or UHT-pasteurized whole cow's milk. A volume of 10 μL thereof was combined with an equal amount of chimeric endolysin in PBS (or only PBS as negative control) in triplicate and incubated in a covered 96-well microtiter plate at 37° C. for 2 h. The dose was low (i.e. 0.25 μM), but this was chosen to differentiate between less and better performing variants, consequently allowing a ranking. Finally, these fractions were serially diluted 1:10 in PBS. 5 μL of each fraction was spotted on TSA or BHI-agar and incubated overnight at 37° C. The following day, colony forming units (CFU) were counted and converted to CFU/mL to calculate logarithmic reductions in comparison with the negative control. The relative scores were calculated by dividing the observed logarithmic reduction for each endolysin by the maximal reduction observed for that specific condition and strain. Next, this value was divided by the number of conditions and strains tested (i.e., 8=4 bacterial strains×2 conditions (PBS/UHT-milk)). As such, the best performing candidate in each individual assay received a score of 0.125 (=(1/1)/8). […] Turbidity reduction assays were performed by combining 100 μL of overnight grown bacterial cells with an equal volume of purified enzyme at the desired concentration. Bacterial cells were washed with PBS and resuspended in a 1:1 ratio with enzyme to an OD600 of approximately 1.0. Next, the OD600 was measured using a Tecan infinite 200 PRO plate reader (Tecan, Switzerland) every 15 seconds at 37° C., shaking the 96-well plate between each measurement.
(§2) Time killing and turbidity reduction assays were performed as previously described in 1.3.1.

[3] = tested on: S. agalactiae; assay: Turbidity reduction assay (TRA), S. agalactiae; format: cell-based, Streptococcus agalactiae
Procedure: as §1, §2

[4] = tested on: S. agalactiae; assay: Time killing assay (TKA), S. agalactiae; format: cell-based, Streptococcus agalactiae; conditions: 0.3 μM
Procedure: as §1, with “A volume of 10 μL thereof was combined with an equal amount of chimeric endolysin in PBS (or only PBS as negative control) in triplicate and incubated in a covered 96-well microtiter plate at 37° C. for 2 h. The dose was low (i.e. 0.25 μM), but this was chosen to differentiate between less and better performing variants, consequently allowing a ranking.” left out
as §2
Time killing assays were performed as previously described in 1.3.1.

B1: NC5: chimeric endolysin SEQ ID NO: 17; HIV-1 TAT + PlySs2 CHAP + Ply1081 CW_7 + PlySs9 amidase_3 (protein)
chain: MYGRKKRRQRRRGATTVNEALNNVRAQVGSGVSVGNGECYALASWYERMISPDATVGLGAGVGWVSGAIGDTISAKNIGSSYNWQANGWTVSTSGPFKAGQIVTLGATPGNPYGHVVIVEAVDGDRLTILEQNYGGKRYPVRNYYSAASYRQQVVHYITPPGTVAQSAPNLAGAGIDQLVQETLAGKYGNGEQRKAALGSQYQAVMAVINGKATAPKKTVDQLAQEVIQGKHGNGEDRKKSLGPDYDAVQKRVTEILKGSPSGNIPKTPSDAPKSEVVNSSTEPKTEETGANGKATDTKITKGSGKHLVICGHGQGRTGYDPGAVNAKLGITEAGKVRELSKLMSKYSGQQIDFITEQNVYDYRSITSIGKGYDSITELHFNAFNGSAKGTEVLIQSSLEADKEDMAILSLLSRYFQNRGIKKVDWLYNANQAASRGYTYRLVEIAFIDNEQDMAIFENKKEDIAKGLVSAITGVEVKTIVPSPPSSTVGSSGTPSKSIYLVGDSLRVLPHATHYQTGQKIANWVKGRTYKILQVKNVHQSNSKRAYLLDGIKSWVLEQDVEGTTKGHSKYHHHHHH
[1]; infected MAC-T
  Δ Log10 reduction of intracellular S. uberis: 1.62±0.05 Log10
[1]; infected PS, remaining bacteria at or below detection limit 200 CFU/mL
  Δ Log10 reduction of intracellular S. uberis: at least 2.12±0.08 Log10
[2]; S. dysgalactiae 1, 0.3 μM
  lysis speed (ΔOD600/min)/μM: 0.25 (ΔOD600/min)/μM
[2]; S. dysgalactiae 1, 1 h, 0.3 μM
  ΔOD600: 0.48
[2]; S. dysgalactiae 2, 0.3 μM
  lysis speed (ΔOD600/min)/μM: 0.30 (ΔOD600/min)/μM
[2]; S. dysgalactiae 2, 1 h, 0.3 μM
  ΔOD600: 0.66
[2]; S. dysgalactiae 3, 0.3 μM
  lysis speed (ΔOD600/min)/μM: 0.25 (ΔOD600/min)/μM
[2]; S. dysgalactiae 3, 1 h, 0.3 μM
  ΔOD600: 0.51
[2]; three clinical S. dysgalactiae isolates, 0.3 μM
  ΔOD, reductions up to: ≤ 0.48±0.03
[3]; S. agalactiae 1, 0.3 μM
  lysis speed (ΔOD600/min)/μM: 0.15 (ΔOD600/min)/μM
[3]; S. agalactiae 1, 1 h, 0.3 μM
  ΔOD600: 0.42
[3]; S. agalactiae 2, 0.3 μM
  lysis speed (ΔOD600/min)/μM: 0.08 (ΔOD600/min)/μM
[3]; S. agalactiae 2, 1 h, 0.3 μM
  ΔOD600: 0.39
[3]; S. agalactiae 3, 0.3 μM
  lysis speed (ΔOD600/min)/μM: 0.12 (ΔOD600/min)/μM
[3]; S. agalactiae 3, 1 h, 0.3 μM
  ΔOD600: 0.41
[3]; three clinical S. agalactiae isolates, 0.3 μM
  ΔOD600, reductions up to: up to 0.39±0.02
[4]; S. agalactiae 1, 1 h
  ΔLog10 (CFU/mL): 1.49 Log10 (CFU/mL)
[4]; S. agalactiae 2, 1 h
  ΔLog10 (CFU/mL): 1.50 Log10 (CFU/mL)
[4]; S. agalactiae 3, 1 h
  ΔLog10 (CFU/mL): 0.00 Log10 (CFU/mL)
[4]; mastitis-derived S. agalactiae, versus PBS
  log10 reduction: 1.50±0.12 log10
[4]; three clinical S. agalactiae isolates
  Δ log10, reductions up to: ≤ 1.50±0.02 log10
